Measurements from PMC10716779.

Target: Full-length rat neuronal nitric oxide synthase (nNOS) (rat) (UniProt P29476)
Sequence (P29476 whole entry): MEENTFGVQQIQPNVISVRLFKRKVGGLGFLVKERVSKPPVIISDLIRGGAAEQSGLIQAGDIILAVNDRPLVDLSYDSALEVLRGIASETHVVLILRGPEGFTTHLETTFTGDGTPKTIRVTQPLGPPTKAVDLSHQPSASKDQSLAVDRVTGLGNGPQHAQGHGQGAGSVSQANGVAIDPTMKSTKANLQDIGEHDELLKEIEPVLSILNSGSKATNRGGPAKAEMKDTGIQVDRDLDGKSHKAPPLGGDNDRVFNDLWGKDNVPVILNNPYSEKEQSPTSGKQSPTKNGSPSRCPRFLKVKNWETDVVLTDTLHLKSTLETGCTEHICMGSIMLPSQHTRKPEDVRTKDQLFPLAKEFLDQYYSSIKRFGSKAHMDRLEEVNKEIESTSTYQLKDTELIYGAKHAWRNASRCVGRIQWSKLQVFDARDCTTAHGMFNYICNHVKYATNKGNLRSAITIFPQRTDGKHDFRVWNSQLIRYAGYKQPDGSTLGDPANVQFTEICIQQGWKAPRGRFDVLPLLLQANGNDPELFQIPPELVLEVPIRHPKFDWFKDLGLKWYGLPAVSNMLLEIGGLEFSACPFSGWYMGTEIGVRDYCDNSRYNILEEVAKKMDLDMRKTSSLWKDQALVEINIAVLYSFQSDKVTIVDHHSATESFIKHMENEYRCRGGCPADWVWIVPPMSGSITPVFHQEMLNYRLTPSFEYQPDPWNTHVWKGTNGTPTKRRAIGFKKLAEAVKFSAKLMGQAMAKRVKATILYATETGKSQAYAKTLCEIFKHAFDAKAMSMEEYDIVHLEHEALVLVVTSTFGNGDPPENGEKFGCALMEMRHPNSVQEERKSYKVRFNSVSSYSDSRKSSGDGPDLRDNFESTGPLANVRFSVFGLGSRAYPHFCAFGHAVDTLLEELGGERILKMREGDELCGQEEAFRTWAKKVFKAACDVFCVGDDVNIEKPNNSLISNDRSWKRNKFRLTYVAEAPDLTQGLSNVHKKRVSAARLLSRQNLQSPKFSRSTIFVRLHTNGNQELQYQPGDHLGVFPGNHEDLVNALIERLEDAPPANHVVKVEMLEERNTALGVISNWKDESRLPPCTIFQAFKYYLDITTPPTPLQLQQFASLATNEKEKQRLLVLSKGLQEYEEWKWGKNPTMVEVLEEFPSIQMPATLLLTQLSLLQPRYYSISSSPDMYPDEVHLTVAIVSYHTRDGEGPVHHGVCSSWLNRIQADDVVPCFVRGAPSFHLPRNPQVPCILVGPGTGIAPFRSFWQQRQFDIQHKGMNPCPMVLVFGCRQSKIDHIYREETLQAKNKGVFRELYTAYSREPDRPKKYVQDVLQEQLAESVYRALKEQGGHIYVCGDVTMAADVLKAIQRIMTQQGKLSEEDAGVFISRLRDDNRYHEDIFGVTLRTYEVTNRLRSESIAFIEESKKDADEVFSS

## Human calmodulin (CaM), N-terminal His6-TEV tag removed (from UniProt P0DP23 1-149) (natural protein)
  nNOS activity (NO synthesis, oxyhemoglobin assay) of 2.0 μM nNOS against increasing CaM concentration; CaM concentration at maximal activation: 2.4 µM
